Test results reported in article PMC6436931, “Activation of the Endonuclease that Defines mRNA 3′ Ends Requires Incorporation into an 8-Subunit Core Cleavage and Polyadenylation Factor Complex” (Molecular Cell, 2019).

Legend:
Ysh1;Mpe1;Yjr141w = Ysh1;Mpe1;Yjr141w (Saccharomyces cerevisiae;Saccharomyces …, UniProt Q06224;P35728;P47172 1-779;1-441;1-347, ||); assay: EMSA; EMSA: 50 nM RNA, 0.25-4.0 uM protein, protein diluted in 10 mM HEPES pH 7.9, 150 mM NaCl, 0.5 mM Mg(OAc)2, plus 1x loading dye (orange G, glycerol, EDTA); 30 min on ice; native 6% acrylamide/TBE PAGE; settings: protein: recombinant;recombinant;recombinant; tags: ;3C-SII (C-terminal) in Ysh1-Mpe1 complexes; untagged in CPFcore;SII-3C (N-terminal) in Ysh1-Yjr141w; untagged in Ysh1-Mpe1-Yjr141w; copies: 1;1;1; label: 5'-FAM
Chain of Ysh1;Mpe1;Yjr141w (Q06224 whole entry, chain 1 of 3): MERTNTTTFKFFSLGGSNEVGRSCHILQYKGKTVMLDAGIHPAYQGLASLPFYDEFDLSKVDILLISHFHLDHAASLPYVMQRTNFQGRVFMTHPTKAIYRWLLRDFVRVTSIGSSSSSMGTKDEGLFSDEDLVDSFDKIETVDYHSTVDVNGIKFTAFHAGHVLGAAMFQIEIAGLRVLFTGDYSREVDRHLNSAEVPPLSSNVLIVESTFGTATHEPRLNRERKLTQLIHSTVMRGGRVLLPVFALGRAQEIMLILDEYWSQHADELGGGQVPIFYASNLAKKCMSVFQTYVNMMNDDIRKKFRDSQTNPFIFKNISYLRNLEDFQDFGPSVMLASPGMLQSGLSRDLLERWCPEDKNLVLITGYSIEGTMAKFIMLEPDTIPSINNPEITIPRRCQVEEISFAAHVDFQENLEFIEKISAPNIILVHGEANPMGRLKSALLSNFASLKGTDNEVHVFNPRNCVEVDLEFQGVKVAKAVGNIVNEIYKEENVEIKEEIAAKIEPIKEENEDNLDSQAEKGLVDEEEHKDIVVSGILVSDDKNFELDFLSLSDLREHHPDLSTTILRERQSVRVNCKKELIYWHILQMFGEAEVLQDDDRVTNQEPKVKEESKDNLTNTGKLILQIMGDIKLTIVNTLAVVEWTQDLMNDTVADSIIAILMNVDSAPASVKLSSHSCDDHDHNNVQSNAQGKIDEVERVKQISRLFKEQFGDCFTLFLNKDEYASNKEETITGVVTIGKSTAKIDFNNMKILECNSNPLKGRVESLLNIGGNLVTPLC
Chain of Ysh1;Mpe1;Yjr141w (P35728 whole entry, chain 2 of 3): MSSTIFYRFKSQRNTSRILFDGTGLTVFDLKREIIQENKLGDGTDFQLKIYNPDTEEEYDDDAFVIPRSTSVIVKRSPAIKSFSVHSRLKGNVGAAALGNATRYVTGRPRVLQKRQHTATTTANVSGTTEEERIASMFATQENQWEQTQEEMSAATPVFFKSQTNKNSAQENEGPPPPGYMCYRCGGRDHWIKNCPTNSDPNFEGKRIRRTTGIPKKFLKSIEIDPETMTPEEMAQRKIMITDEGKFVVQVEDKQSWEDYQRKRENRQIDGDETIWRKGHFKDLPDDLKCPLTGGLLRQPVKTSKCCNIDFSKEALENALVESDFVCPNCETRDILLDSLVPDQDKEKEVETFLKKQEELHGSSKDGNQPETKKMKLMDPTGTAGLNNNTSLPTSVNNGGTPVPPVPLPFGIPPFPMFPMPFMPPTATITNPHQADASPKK
Chain of Ysh1;Mpe1;Yjr141w (P47172 whole entry, chain 3 of 3): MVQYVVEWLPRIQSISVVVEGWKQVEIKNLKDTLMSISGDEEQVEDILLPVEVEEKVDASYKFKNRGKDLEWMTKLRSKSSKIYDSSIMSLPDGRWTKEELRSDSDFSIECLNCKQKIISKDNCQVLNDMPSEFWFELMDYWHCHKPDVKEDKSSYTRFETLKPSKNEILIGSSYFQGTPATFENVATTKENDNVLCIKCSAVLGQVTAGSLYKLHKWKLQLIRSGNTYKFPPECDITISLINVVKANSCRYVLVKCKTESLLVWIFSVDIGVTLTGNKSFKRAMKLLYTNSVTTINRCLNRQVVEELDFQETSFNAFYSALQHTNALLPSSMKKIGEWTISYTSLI

Rna14;Rna15 = target: T1, Rna14;Rna15 (Saccharomyces cerevisiae;Saccharomyces …, UniProt P25298;P25299 1-677;1-296, |); assay: as above; settings: protein: recombinant;recombinant; tags: 6H;; chain copies: 2;2; label: 5'-FAM
T1 sequence 1: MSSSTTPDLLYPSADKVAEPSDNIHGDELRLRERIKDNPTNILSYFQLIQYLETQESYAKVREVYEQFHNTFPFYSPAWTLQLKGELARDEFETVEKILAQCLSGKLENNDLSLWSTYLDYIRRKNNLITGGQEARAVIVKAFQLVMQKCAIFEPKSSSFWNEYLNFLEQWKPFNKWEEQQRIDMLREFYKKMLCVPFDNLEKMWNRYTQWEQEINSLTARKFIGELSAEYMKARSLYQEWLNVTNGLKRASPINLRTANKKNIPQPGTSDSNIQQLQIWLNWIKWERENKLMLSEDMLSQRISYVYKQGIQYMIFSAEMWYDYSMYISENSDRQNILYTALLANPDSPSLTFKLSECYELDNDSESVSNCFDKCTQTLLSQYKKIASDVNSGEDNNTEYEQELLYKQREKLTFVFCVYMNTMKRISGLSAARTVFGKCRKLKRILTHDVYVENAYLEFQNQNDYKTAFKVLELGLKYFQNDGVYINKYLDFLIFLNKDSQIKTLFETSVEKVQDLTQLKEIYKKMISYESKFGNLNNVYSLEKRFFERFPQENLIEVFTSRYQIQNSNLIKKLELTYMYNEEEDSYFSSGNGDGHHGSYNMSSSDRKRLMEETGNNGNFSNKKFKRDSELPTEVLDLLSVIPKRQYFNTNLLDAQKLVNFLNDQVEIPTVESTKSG
T1 sequence 2: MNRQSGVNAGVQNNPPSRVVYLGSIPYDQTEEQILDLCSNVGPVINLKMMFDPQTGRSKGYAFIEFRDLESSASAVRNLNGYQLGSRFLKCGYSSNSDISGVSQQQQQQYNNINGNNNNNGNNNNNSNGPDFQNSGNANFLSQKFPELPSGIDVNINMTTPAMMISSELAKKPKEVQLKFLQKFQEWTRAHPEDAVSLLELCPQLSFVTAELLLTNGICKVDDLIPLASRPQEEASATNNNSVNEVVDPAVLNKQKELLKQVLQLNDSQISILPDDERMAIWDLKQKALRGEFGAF

Cft1;Pfs2;Yth1;Fip1;Pap1 = Cft1;Pfs2;Yth1;Fip1;Pap1 (Saccharomyces cerevisiae;Saccharomyces …, UniProt Q06632;P42841;Q06102;P45976;P29468 1-1357;1-465;1-208;1-327;1-568, ||||); assay: EMSA; CPFpol; EMSA: 50 nM RNA, 0.25-4.0 uM protein, protein diluted in 10 mM HEPES pH 7.9, 150 mM NaCl, 0.5 mM Mg(OAc)2, plus 1x loading dye (orange G, glycerol, EDTA); 30 min on ice; native 6% acrylamide/TBE PAGE; settings: protein: recombinant;recombinant;recombinant;recombinant;recombinant; tags: ;3C-SII;3C-8H; untagged in CPFpol+Cft2;;SII (Pap1-SII) when alone; untagged in CPFpol and CPFcore; copies: 1;2;1;1;1; label: 5'-FAM

GGGGGGGGGGGGGGG (ssRNA) [G15]
binding result (Ysh1;Mpe1;Yjr141w): binds | binding result (Rna14;Rna15): binds | binding result (Cft1;Pfs2;Yth1;Fip1;Pap1): binds

CCCCCCCCCCCCCCC (ssRNA) [C15]
binding result (Ysh1;Mpe1;Yjr141w): no binding | binding result (Rna14;Rna15): no binding | binding result (Cft1;Pfs2;Yth1;Fip1;Pap1): no binding

AAGAACGUUAUUUAUAUUUCAAAUUUUUCUUUUUU (ssRNA) [CYC1d EMSA probe]
binding result (Rna14;Rna15): binds | binding result (Cft1;Pfs2;Yth1;Fip1;Pap1): binds

CGUUAUUUAUAUUUCAAAUUUUUCU (ssRNA) [CYC1f EMSA probe]
binding result (Rna14;Rna15): binds

AAAAAAAAAAAAAAA (ssRNA) [A15]
binding result (Ysh1;Mpe1;Yjr141w): no binding | binding result (Rna14;Rna15): no binding | binding result (Cft1;Pfs2;Yth1;Fip1;Pap1): binds

UUUUUUUUUUUUUUU (ssRNA) [U15]
binding result (Ysh1;Mpe1;Yjr141w): no binding | binding result (Rna14;Rna15): binds | binding result (Cft1;Pfs2;Yth1;Fip1;Pap1): no binding
